The labels stand for the following.
B1: HDV Ribozyme (parent)
chain: GGCCGGCAUGGUCCCAGCCUCCUCGCUGGCGCCGGCUGGGCAACAUUCCGAGGGGACCGUCCCCUCGGUAAUGGCGAAUGGGACCCA

The variants in this data set derive from B1. As to the kind of experiment: self-cleavage, relative activity (ratio to wild type); higher = more cleavage; co-transcriptional.
GGCCAGCAUGGUCCCAGCCUCCUCGCUGGCGCCGGCUGGACAACAUUCCGAGGGGACCGUCCCCUCGGUAAUGGCGAAUGGGACCCA: the self-cleavage was 0.0992.

In the case of GGCCGGCAUGGUCCCACCCUCCUCGCUGGCGCCGGCUGGGCAACAUUCCGAGGGGACCGUCCCCUCGGUAAUGGCAAAUGGGACCCA, the self-cleavage came out at 0.446.

Take GGCCGGCAUGGACCAAGCCUCCUCGCUGGCGCCGGCUGGGCAACAUUCCGAGGGGACCGUCCCCUCGGUAAUGGCGAAUGGGACCCA: the self-cleavage turned out to be 0.19.

For the variant GGCCGGCAUGGUCCCAGCCUCCUCGCUGGCGCCGACUGGGCAACAUUCCGAGGGGACCGUCCCCUCGGUAAUGGCGAAUGGGACCCU, the self-cleavage stood at 0.391.

As to GGCCGGCAUGGUCCCAACCUCCUCGCUGGCGCCGGCUGGUCAACAUUCCGAGGGGACCGUCCCCUCGGUAAUGGCGAAUGGGACCCA, the self-cleavage was determined as 0.562.

On to GGCCGGCAUGGUCCCACCCUCCUCGCUGGCGCUGGCUGGGCAACAUUCCGAGGGGACCGUCCCCUCGGUAAUGGCGAAUGGGACCCA, for which the self-cleavage worked out at 0.0475.

GGCCGGCAUGGUCCCAGCCUCCUCGCAGGCGCCGGCUGGGCAACAUUCCGAGGGGACCGUCCCCUCGGUAAUGGCGAAUGGGACCUA: the self-cleavage came out at 0.966.

Consider GGCCGGCAUGGUCCCGGCCUCCUCGCUGGCGCCGGCUGGGCAACAUUCCGAGGGGACCGUCCCCUCGGUAAUAGCGAAUGGGACCCA, for which the self-cleavage was 0.396.

As for GGCCGGCAUGGUCCCAGCCUCCUCGCUGGCGCCGGUUGGGCAACAUUCCGAGGGGACCGUCCUCUCGGUAAUGGCGAAUGGGACCCA, the self-cleavage stood at 0.904.

As to GGCCGGCAUGGUCCCAGCCUCCUCGAUGGCGCCGGCUGGGCAAGAUUCCGAGGGGACCGUCCCCUCGGUAAUGGCGAAUGGGACCCA, the self-cleavage worked out at 0.712.

Turning to GGCCGGCAUGGUCCCAGCCUCCUCGCUGUCGCCGGCUGGGCAACAUUCCGAGGGGACCGUCCCCUCGGUAAUGGCGAUUGGGACCCA, the self-cleavage turned out to be 0.0287.

As to GGCCGGUAUAGUCCCAGCCUCCUCGCUGGCGCCGGCUGGGCAACAUUCCGAGGGGACCGUCCCCUCGGUAAUGGCGAAUGGGACCCA, the self-cleavage is 0.425.

Turning to GGCCGGCAUGGUCCUAGCCUCCUCGCUGGCGCCGGCUGGGCAACAUUCCGAGGGGACCGUCCCCUCGGUAAUGGAGAAUGGGACCCA, the self-cleavage is 0.0326.

Turning to GGCCGGCAUGGUCCCAGUCUCCUCGCGGGCGCCGGCUGGGCAACAUUCCGAGGGGACCGUCCCCUCGGUAAUGGCGAAUGGGACCCA, the self-cleavage was 0.391.

For the variant GGCCGGCAUGGUACCAGCUUCCUCGCUGGCGCCGGCUGGGCAACAUUCCGAGGGGACCGUCCCCUCGGUAAUGGCGAAUGGGACCCA, the self-cleavage came out at 0.119.

As for GGCCGGCAUGGUCCCAGCCUCCUCGCUGGCGUCGGCUGGGCAACAAUCCGAGGGGACCGUCCCCUCGGUAAUGGCGAAUGGGACCCA, the self-cleavage turned out to be 0.573.

Regarding GGCCGGCAUGUUCCCAGCCUCCUCGCUGGCGCCGGCUGGGCAACAUUCAGAGGGGACCGUCCCCUCGGUAAUGGCGAAUGGGACCCA, the self-cleavage came to 0.307.

GGCCGGCAUGGUCCCAGCCUCCUCGCUGGCGCCGGCUGGGCAACAUUCCGAGGGGACCGUCCCCUCGGUCAUGGCGAAUGCGACCCA: the self-cleavage is 0.201.

Turning to GGCCGGCAUGGUCCCAGCCUCCUCGCUGGCGCCGGCUGGGCCACUUUCCGAGGGGACCGUCCCCUCGGUAAUGGCGAAUGGGACCCA, the self-cleavage was found to be 0.306.

In the case of GGCCGGCAUGGGCCCAGCCUCCUCGCUGGCGCCGGCUGGGCAACAUUCCGAGGGGACCGUCCCCUCGGUAACGGCGAAUGGGACCCA, the self-cleavage was found to be 0.

Take UGCCGGCAUCGUCCCAGCCUCCUCGCUGGCGCCGGCUGGGCAACAUUCCGAGGGGACCGUCCCCUCGGUAAUGGCGAAUGGGACCCA: the self-cleavage amounted to 0.292.

GGCCGGCAUGGUCCCAGCCUCCUCGCUGGCGCCGGCUGGGCAACAUUCGUAGGGGACCGUCCCCUCGGUAAUGGCGAAUGGGACCCA: the self-cleavage came to 0.47.

GGCCGGCAUGGUCCAAGCCUCCUCGUUGGCGCCGGCUGGGCAACAUUCCGAGGGGACCGUCCCCUCGGUAAUGGCGAAUGGGACCCA: the self-cleavage was 0.895.

In the case of GGCCGGCAUGGUCCCAGCUUCCUCGCUGGCGCCGGCUGGGCAACAUUCCGAGGGGACCGUCCCCUCGGUAAUUGCGAAUGGGACCCA, the self-cleavage came to 0.12.

On to GGCCGGCAUGGUCCCAGCCUCCUCGCUGGGGCCGGCUGGGCAACAAUCCGAGGGGACCGUCCCCUCGGUAAUGGCGAAUGGGACCCA, for which the self-cleavage was found to be 0.0906.

Turning to GGCCGGCAUGGUCCCAGCCUCCUCGCUGGCCCCGGCUGGGCAACAUUCCGAGGGGACCGUCGCCUCGGUAAUGGCGAAUGGGACCCA, the self-cleavage amounted to 0.166.

Regarding GGCCGGCAUGGUCCCAGCCUCCUCGCUGGCGCCGGCUGGGCAACACUCCGAGGGGACCGUCCCCUCGGUAAUGGCGAAUGGGACCUA, the self-cleavage is 0.697.

For GGCCGGCAUGGUCCCAGUCUCCUCGCUGGCGCCGGCUGGGCAACAUUCCGAGGGGACCGGCCCCUCGGUAAUGGCGAAUGGGACCCA, the self-cleavage stood at 0.633.

GGCCGGCAUGGCCCCAGCCUCCUCGCUGGCGCCGGCUGGGCAACAUUCCGAGGGGACCGUCCCCUCGGUAAUGGCGAAGGGGACCCA: the self-cleavage was determined as 0.0791.

As for GGCCGGGAUGGUCCCAGCCUCCUCGCUGGCGCCGGCUGGGCAUCAUUCCGAGGGGACCGUCCCCUCGGUAAUGGCGAAUGGGACCCA, the self-cleavage was determined as 0.0573.

As for GGCCGGCAUGGUCCCAGCCUCCUCGCUGGCGCCGGCAGGGCAACAUUCCGAGGGGACGGUCCCCUCGGUAAUGGCGAAUGGGACCCA, the self-cleavage stood at 0.369.

Regarding GCCCGGGAUGGUCCCAGCCUCCUCGCUGGCGCCGGCUGGGCAACAUUCCGAGGGGACCGUCCCCUCGGUAAUGGCGAAUGGGACCCA, the self-cleavage was 0.0692.

These data come from the RNAGym collection of RNA variant scans (doi:10.7554/elife.80360).
